Experimental data reported in the supplement of paper PMC10126150.
± gives the standard deviation of the averaged measurements.

Tested on: ATP
Assay: switch fluorescence ratio, 500 uM ATP over buffer (Cy3 cluster intensity, sum of 5 cycles each) (fold (ratio)); higher = stronger signal-on switching upon ATP binding; sequences stand for … in TCGTCGGCAGCGTCAGATGTGTATAAGAGACAGTTTTTTTTTTTTTTTTTTTTTTTTT…TC
Details: aptamer strand: ATP DNA aptamer (quencher-CACCTGGGGGAGTATTGCGGAGGAAGG + anchor), 100 nM annealed; ATP concentration: 500 uM
In short: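 Five buffer/ATP imaging cycles were run on Cy3-labelled switching-strand clusters on a modified Illumina MiSeq flow-cell, with NaOH stripping and re-annealing between cycles. In each cycle, clusters annealed to 100 nM quencher-labelled ATP aptamer were imaged in selection buffer, then after 15 min with 500 uM ATP at 22 °C. Per cluster, the fluorescence ratio is summed target-cycle over summed buffer-cycle Cy3 intensity, averaged per switch-domain sequence. Only clusters within 100-1000 RFU were kept.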
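Note: ATP exposure 15 min at 22 °C before imaging.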

| Sequence | switch fluorescence ratio |
| --- | --- |
| CGGTGTGTGG | 0.999 ± 0.032 |
| CGGTGTTGCC | 0.971 ± 0.011 |
| CGGTTAAAAA | 0.982 ± 0.066 |
| CGGTTAACCA | 1.02 ± 0.021 |
| CGGTTAACGG | 1 ± 0.025 |
| CGGTTAATTC | 1.012 ± 0.0028 |
| CGGTTAGGCG | 1.06 ± 0.012 |
| CGGTTATACT | 1.25 ± 0.021 |
| CGGTTATCCT | 1.04 ± 0.032 |
| CGGTTATGGA | 0.999 ± 0.026 |
| CGGTTCATCC | 1.02 ± 0.014 |
| CGGTTCCGTA | 0.971 ± 0.047 |
| CGGTTCGGAT | 0.989 ± 0.017 |
| CGGTTCGGTG | 0.981 ± 0.014 |
| CGGTTCGTTA | 0.9795 ± 0.004 |
| CGGTTGAGGT | 0.999 ± 0.047 |
| CGGTTGCGGA | 0.995 ± 0.051 |
| CGGTTGGCGG | 0.996 ± 0.038 |
| CGGTTGGGCT | 1.01 ± 0.054 |
| CGGTTGGGGC | 1.11 ± 0.057 |
| CGGTTGTAGC | 1 ± 0.021 |
| CGGTTGTAGT | 0.993 ± 0.032 |
| CGGTTTATGC | 1.09 ± 0.052 |

| Sequence | switch fluorescence ratio |
| --- | --- |
| CGGTTTGGGG | 0.991 ± 0.027 |
| CGGTTTGGGT | 0.9931 ± 0.0043 |
| CGGTTTTTAG | 1.01 ± 0.044 |
| CGGTTTTTTC | 1.03 ± 0.027 |
| CGTAAAATGA | 0.992 ± 0.022 |
| CGTAAATTGT | 0.9672 ± 0.0039 |
| CGTAAATTTA | 0.975 ± 0.018 |
| CGTAACGGGA | 1.037 ± 0.0076 |
| CGTAAGGCAG | 1 ± 0.038 |
| CGTAAGGGTT | 1.008 ± 0.0063 |
| CGTAAGTTTT | 0.98 ± 0.03 |
| CGTACGGGCG | 0.956 ± 0.028 |
| CGTACTCTCA | 1.037 ± 0.006 |
| CGTACTTTTT | 1 ± 0.032 |
| CGTAGACGGT | 0.9592 ± 0.0063 |
| CGTAGACTTG | 0.9736 ± 0.005 |
| CGTAGCACAG | 1.3067 ± 0.0013 |
| CGTAGCATCG | 1.1 ± 0.038 |
| CGTAGGGGGC | 1.03 ± 0.023 |
| CGTAGGGGGT | 1.01 ± 0.03 |
| CGTAGTAGGC | 1.12 ± 0.1 |
| CGTAGTGAAG | 1.03 ± 0.037 |
| CGTAGTGGAA | 0.9919 ± 0.0061 |

| Sequence | switch fluorescence ratio |
| --- | --- |
| CGTAGTTCGT | 1.036 ± 0.0046 |
| CGTATAGGAG | 1.02 ± 0.045 |
| CGTATAGGTG | 1.06 ± 0.077 |
| CGTATAGTTA | 0.987 ± 0.022 |
| CGTATATTAA | 0.975 ± 0.068 |
| CGTATCCACT | 0.99569 ± 0.00085 |
| CGTATCTGAC | 1.04 ± 0.014 |
| CGTATGGCCT | 0.958 ± 0.01 |
| CGTATGGGGC | 0.948 ± 0.087 |
| CGTATTGGGG | 1.04 ± 0.017 |
| CGTATTTCTT | 0.989 ± 0.021 |
| CGTATTTTT | 0.99 ± 0.018 |
| CGTCAAAAAC | 1.38 ± 0.2 |
| CGTCAATTGA | 1.01 ± 0.036 |
| CGTCACATAA | 1.22 ± 0.016 |
| CGTCAGGTGT | 3.713 ± 0.012 |
| CGTCATATTG | 0.997 ± 0.027 |
| CGTCATGGCT | 0.957 ± 0.041 |
| CGTCCAGCTT | 1.51 ± 0.18 |
| CGTCCGGCGC | 1.346 ± 0.0029 |
| CGTCCGGGGA | 1.56 ± 0.075 |
| CGTCCGGGGT | 1.48 ± 0.62 |
| CGTCCGGTCG | 1.02 ± 0.064 |

| Sequence | switch fluorescence ratio |
| --- | --- |
| CGTCCTGAGG | 1.04 ± 0.019 |
| CGTCCTTGTT | 0.991 ± 0.029 |
| CGTCCTTTTT | 1.05 ± 0.039 |
| CGTCGCGGGC | 1.0404 ± 0.00051 |
| CGTCGGGGAT | 1 ± 0.037 |
| CGTCGGGGCG | 1.02 ± 0.036 |
| CGTCTAAAC | 1.13 ± 0.021 |
| CGTCTAACGC | 1.02 ± 0.029 |
| CGTCTAAGCG | 1 ± 0.086 |
| CGTCTAGAGA | 1.02 ± 0.073 |
| CGTCTGGCTG | 1 ± 0.057 |
| CGTCTGGGGA | 0.996 ± 0.048 |
| CGTCTGTCTC | 1.045 ± 0.005 |
| CGTCTTATTA | 0.9826 ± 0.0028 |
| CGTCTTGGTG | 0.999 ± 0.03 |
| CGTGAACTCT | 0.999 ± 0.016 |
| CGTGAAGGGA | 1.01 ± 0.026 |
| CGTGAATAGT | 1.03 ± 0.041 |
| CGTGAATCTG | 0.9669 ± 0.006 |
| CGTGACGAGC | 1.12 ± 0.062 |
| CGTGATCCCC | 1.17 ± 0.057 |
| CGTGATGGAG | 1.011 ± 0.009 |
| CGTGATGGTA | 0.969 ± 0.0098 |

| Sequence | switch fluorescence ratio |
| --- | --- |
| CGTGATGGTT | 0.983 ± 0.014 |
| CGTGATTCAC | 1.007 ± 0.0075 |
| CGTGATTTA | 0.961 ± 0.017 |
| CGTGCAGGGT | 1.03 ± 0.052 |
| CGTGCAGTTC | 1.15 ± 0.036 |
| CGTGCATATC | 2.51 ± 0.17 |
| CGTGCCGATC | 1.01 ± 0.013 |
| CGTGCGGGGT | 0.991 ± 0.028 |
| CGTGCGGTAT | 0.987 ± 0.039 |
| CGTGCGGTGG | 1.01 ± 0.043 |
| CGTGCTATTC | 1.235 ± 0.012 |
| CGTGCTGTTA | 0.98019 ± 0.0002 |
| CGTGGCATTT | 1.03 ± 0.07 |
| CGTGGCGCCG | 0.957 ± 0.054 |
| CGTGGCGGGA | 0.923 ± 0.09 |
| CGTGGGACAG | 0.976 ± 0.011 |
| CGTGGGACTC | 1.1401 ± 0.00046 |
| CGTGGGCGCC | 0.972 ± 0.026 |
| CGTGGGGATG | 1.001 ± 0.0031 |
| CGTGGGGTTC | 0.983 ± 0.021 |
| CGTGGGTTGT | 0.9956 ± 0.0018 |
| CGTGGTCAAC | 0.968 ± 0.047 |
| CGTGGTGGAG | 1 ± 0.045 |

| Sequence | switch fluorescence ratio |
| --- | --- |
| CGTGGTGGCT | 0.989 ± 0.12 |
| CGTGGTTTGT | 0.9874 ± 0.0051 |
| CGTGTAAGGC | 0.993 ± 0.025 |
| CGTGTAAGTA | 1.011 ± 0.0044 |
| CGTGTAGGGA | 1.06 ± 0.029 |
| CGTGTCGTGC | 0.971 ± 0.062 |
| CGTGTCTTAA | 0.974 ± 0.021 |
| CGTGTGGCCA | 1 ± 0.016 |
| CGTGTGTATG | 0.997 ± 0.0085 |
| CGTGTTTTAC | 1.018 ± 0.007 |
| CGTTAAGCTT | 1.03 ± 0.014 |
| CGTTACGTAG | 1.05 ± 0.018 |
| CGTTACTAAC | 1.12 ± 0.02 |
| CGTTAGGGGG | 1.02 ± 0.041 |
| CGTTAGGTAT | 0.969 ± 0.033 |
| CGTTAGTCGT | 0.981 ± 0.039 |
| CGTTATACGG | 1.043 ± 0.0037 |
| CGTTATATTT | 1.07 ± 0.14 |
| CGTTATGTTC | 0.9772 ± 0.0031 |
| CGTTATTCGG | 0.965 ± 0.032 |
| CGTTATTTCT | 1.01 ± 0.052 |
| CGTTCAAGTA | 0.973 ± 0.056 |
| CGTTCAGGGG | 1.16 ± 0.024 |

| Sequence | switch fluorescence ratio |
| --- | --- |
| CGTTCAGTGG | 1.031 ± 0.0083 |
| CGTTCATGCG | 0.99 ± 0.032 |
| CGTTCATTTG | 0.993 ± 0.028 |
| CGTTCCAGCC | 1.04 ± 0.041 |
| CGTTCCATTG | 1 ± 0.012 |
| CGTTCCGGGT | 1.02 ± 0.036 |
| CGTTCCTCGG | 1.77 ± 0.057 |
| CGTTCGATGC | 1.21 ± 0.042 |
| CGTTCGCTTA | 1.96 ± 0.037 |
| CGTTCGGCTG | 1.04 ± 0.039 |
| CGTTCGGGGG | 1.01 ± 0.083 |
| CGTTCGGGGT | 0.981 ± 0.012 |
| CGTTCTATCT | 1 ± 0.079 |
| CGTTCTCTGT | 0.987 ± 0.029 |
| CGTTCTGAGT | 0.955 ± 0.016 |
| CGTTCTTGTT | 0.976 ± 0.032 |
| CGTTGAATAT | 1.01 ± 0.016 |
| CGTTGACCTT | 1.07 ± 0.029 |
| CGTTGAGGTG | 1.02 ± 0.02 |
